Results from patent publication EP4796630A2 (Hugel Inc., dated 2026).
Several values for one entry are separate records, joined by “and”; a condition that tells them apart may be missing. Identical values can stand only once. Like-named read-outs stand apart in the source and are kept apart here.

Tests used:
recombinant GST-SNAP25FL [1] = molecular target: T1, recombinant GST-SNAP25FL (UniProt P60880 1-206); assay: BLI (Octet Red96), IgG on AMC biosensor, GST-SNAP25FL as analyte; from tentative Kdis
T1 construct: range 1-206; also called SNAP25 206; full-length SNAP25; not shown: GST tag

[2] = molecular target: T2, recombinant GST-SNAP25197 (UniProt P60880 1-197); assay: direct ELISA; ratio of A450 with SNAP25197 to A450 with SNAP25FL
T2 construct: range 1-197; also called BoNT/A-cleaved form of SNAP25

[3] = molecular target: T2, recombinant GST-SNAP25197; assay: BLI (Octet Red96), IgG on AMC biosensor, GST-SNAP25197 as analyte
recombinant GST-SNAP25FL [4] = molecular target: T1, recombinant GST-SNAP25FL; assay: BLI (Octet Red96), IgG on AMC biosensor, GST-SNAP25FL as analyte
recombinant GST-SNAP25FL [5] = molecular target: T1, recombinant GST-SNAP25FL; assay: BLI (Octet Red96), IgG on AMC biosensor, GST-SNAP25FL as analyte; Kdis is the instrument's lowest limit, tentatively given
[6] = molecular target: T3, endogenous SNAP25197 in total cell lysate of BoNT/A-treated N2-42F cells (mouse, UniProt P60879 1-197); assay: sandwich ELISA, plate coated with B4 IgG, lysate of BoNT/A-treated N2-42F cells
T3 construct: range 1-197; also called SNAP25197 captured

[7] = molecular target: T2, recombinant GST-SNAP25197; assay: BLI (Octet Red96), IgG on AMC biosensor, GST-SNAP25197 as analyte; remark: listed apart in the source
[8] = molecular target: T2, recombinant GST-SNAP25197
recombinant GST-SNAP25FL [9] = molecular target: T1, recombinant GST-SNAP25FL; assay: BLI (Octet Red96), IgG on AMC biosensor, GST-SNAP25FL as analyte; remark: listed apart in the source
[10] = molecular target: T2, recombinant GST-SNAP25197; remark: listed apart in the source
[11] = molecular target: T3, endogenous SNAP25197 in total cell …; assay: sandwich ELISA on lysate of BoNT/A-treated N2-42F cells

T2 sequence (P60880 1-197 limits assumed): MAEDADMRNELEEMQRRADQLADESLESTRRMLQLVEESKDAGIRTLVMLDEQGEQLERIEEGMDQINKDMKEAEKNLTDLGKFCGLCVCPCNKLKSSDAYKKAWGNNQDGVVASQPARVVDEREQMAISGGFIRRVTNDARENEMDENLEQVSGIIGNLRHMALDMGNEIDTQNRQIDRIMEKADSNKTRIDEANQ
T1 sequence (P60880 whole entry): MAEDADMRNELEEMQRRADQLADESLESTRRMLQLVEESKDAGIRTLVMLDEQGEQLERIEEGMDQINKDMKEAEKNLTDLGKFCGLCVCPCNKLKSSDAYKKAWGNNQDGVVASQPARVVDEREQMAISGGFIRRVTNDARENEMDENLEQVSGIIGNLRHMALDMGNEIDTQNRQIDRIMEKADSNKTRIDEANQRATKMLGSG
T3 sequence (P60879 1-197 limits assumed): as the sequence (P60880 1-197 limits assumed) above

Binder	Kd (recombinant GST-SNAP25FL [1])	Ratio197/206 [2]	binding result [3]	kon (recombinant GST-SNAP25FL [4])	koff (recombinant GST-SNAP25FL [5])	binding result [6]	kon [7]	Kd [8]	koff [8]	binding result (recombinant GST-SNAP25FL [9])	Kd [10]	koff [10]	kon [10]	binding result [11]	Kd [7]	koff [7]
D2 IgG (antibody, V domains shown) VH: DVKLQESGPGLVKPSQSLSLTCSVTGYSITSGYYWNWIRQFPGNKLEWMGYIRYDGSNNYNPSLKNRISITRDTSKNQFFLKLNSVTTEDTASYYCARDRDSSYYFDYWGQGTALTVSS VL: DIVMTQSSSYLSVSLGGRVTITCKASDHINNWLAWYQQKPGNAPRLLISDTTSLETGVPSRFSGSGSGKDYTLSITSLQTEDVATYYCQQYWSAPPTFGGGTKLEIK	≤ 0.61 pM	0.03	no binding	164000 M⁻¹ s⁻¹	≤ 1e-07 s⁻¹	–	–	–	–	–	–	–	–	–	–	–
B4 IgG (antibody, V domains shown, also called B4 IgG1; clone 4) VH: EVKLVESGGGLVKPGGSLKLSCAASGFTFSNYGMSWVRQTPEKRLEWVATISSGGSYTYYPDSVKGRFTISRDNAKNTLYLQMSSLRSEDTAMYYCARHEGGGNPYFDYWGQGTTLTVSS VL: DVLMTQTPLSLPVSLGDQASISCRSSQSLVHSNGNTYLHWYLQKPGQSPKLLIYKVSNRFSGVPDRFSGSGSGTDFTLKISRVEAEDLGVYFCSQNTLVPWTFGGGTKLEIK	≤ 0.1 pM	0.83	–	95100 M⁻¹ s⁻¹	≤ 1e-07 s⁻¹	binds	–	–	–	–	–	–	–	–	–	–
D3 IgG (antibody, V domains shown) VH: EVQLEESGGGLVQPGGSLKLSCAASGFTFSNYGMSWVRQTPDKRLELVATINSNGGTTYYPDSVKGRFTISRDNAKNTLYLQMSSLKSEDSAMYYCARDRDAMDYWGQGTSVTVSS VL: DVLMTQTPLSLPVSLGDQASISCRSSQSIVNSHGNTYLEWYLQKPGQSPKLLIYKVSNRFSGVPDRFSGSGSGTDFTLKISRVEAEDLGVYYCFQGSHVPWTFGGGTKLEIK	–	12.9	–	–	–	–	111000 M⁻¹ s⁻¹	≤ 0.9 pM	≤ 1e-07 s⁻¹	no binding (tested: up to 1 µM)	–	–	–	–	–	–
C4 IgG (antibody, V domains shown) VH: DVKLQESGPGLVKPSQSLSLTCTVTGYSITSDYAWNWIRQFPGNKLEWMGYISYSVGTRYNPSLKSRISITRDTSKNQFFLLLKSVTNEDTATYFCARKGEYGFAYWGQGTLVTVSA VL: DIVMTQSPASLAVSLGQRATISCRASKSVSTSGYSYMHWYQQKPGQPPKLLIYLASNLESGVPARFSGSGSGTDFTLNIHPVEEEDAATYYCQHSRELPLTFGAGTKLELK	–	919	–	–	–	–	92800 M⁻¹ s⁻¹	1.07 pM	1e-07 s⁻¹	no binding (tested: up to 1 µM)	6530 pM and 17800 pM	0.00148 s⁻¹ and 0.0041 s⁻¹	230000 M⁻¹ s⁻¹ and 227000 M⁻¹ s⁻¹	–	–	–
C16 IgG-HRP conjugate (antibody, V domains shown, also called C16-HRP; Cg16 IgG-HRP conjugates) VH: EVQLQQSGAELARPGASVQMSCKAFGYTFTNYTMHWVRQRPGQGLEWIGFINPSSDYTNYNQKFKDKATLSADKSSSTAYMQLSSLTSEDSAVYYCARRIFYNGRTYAAMDYWGQGTSVTVSS VL: DIVMTQSPASLAVSLGQRATISCRASKSVSSSGYSYMHWYQQKPGQPPKLLIYLASNLESGVPARFSGSGSGTDFTLNIHPVEEEDAATYYCQHSRELPLTFGAGTKLELK	–	–	–	–	–	–	–	–	–	–	–	–	–	binds	–	–
C16 IgG (antibody, V domains shown, also called C16 IgG1) VH: EVQLQQSGAELARPGASVQMSCKAFGYTFTNYTMHWVRQRPGQGLEWIGFINPSSDYTNYNQKFKDKATLSADKSSSTAYMQLSSLTSEDSAVYYCARRIFYNGRTYAAMDYWGQGTSVTVSS VL: DIVMTQSPASLAVSLGQRATISCRASKSVSSSGYSYMHWYQQKPGQPPKLLIYLASNLESGVPARFSGSGSGTDFTLNIHPVEEEDAATYYCQHSRELPLTFGAGTKLELK	–	996	–	–	–	–	1.6e+06 M⁻¹ s⁻¹	–	–	no binding (tested: up to 1 µM)	6440 pM and 9170 pM	0.00152 s⁻¹ and 0.00215 s⁻¹	236000 M⁻¹ s⁻¹ and 235000 M⁻¹ s⁻¹	–	1.62 pM	2.57e-06 s⁻¹
C24 IgG (antibody, V domains shown) VH: EVKLVESGGGLVQPKGSLKLSCAASGYTFNTYAMNWVRQAPGKGLEWVARIRSKSNNYTTYYADSVKDRFTISRDDSQSMLYLQINNLKTEDTAMYYCVGQILYYYVGSPAWFAYWGQGTLVTVSA VL: DIVMTQSPASLAVSLGQRATISCRASKSVSTSGYSYMHWYQQKPGQPPKLLIFLASNLESGVPARFSGSGSGTDFTLNIHPVEEEDAATYYCQHSRELPWTFGGGTKLEIK	–	973	–	–	–	–	86800 M⁻¹ s⁻¹	1.15 pM	1e-07 s⁻¹	no binding (tested: up to 1 µM)	9620 pM and 5250 pM	0.00509 s⁻¹ and 0.00241 s⁻¹	529000 M⁻¹ s⁻¹ and 458000 M⁻¹ s⁻¹	–	–	–
C7 IgG (antibody, V domains shown, also called C7 IgG2a) VH: QVQLVETGGGLVQPKGSLKLSCAASGFTFNTNAMNWVRQAPGKGLEWVARIRSKSNNYATYYADSVKDRFTISRDDSQSLLYLQMNNLKTEDTAMYYCVYGRSYGGLSYWGQGTLVTVSA VL: DIVMTQSPASLAVSLGQRATISCRASKSVSSSGYSYMHWYQQKPGQPPKLLIYLASNLESGVPARFSGSGSGTDFTLNIHPVEEEDAATYYCQHSRELPLTFGAGTKLELK	–	1040	–	–	–	–	77800 M⁻¹ s⁻¹	1.28 pM	1e-07 s⁻¹	no binding (tested: up to 1 µM)	–	–	277000 M⁻¹ s⁻¹ and 257000 M⁻¹ s⁻¹	–	–	–
C14 IgG (antibody, V domains shown) VH: EVKLVESGGGLVQPKGSLKLSCAASGFTFNTNAMNWVRQAPGKGLEWVARIRSKSDNYATYYADSVKDRFTISRDDSPSMLYLQMNNLKTEDTAMYYCVYGRSYGGLGYWGQGTLVTVSA VL: DIVLTQSPASLAVSLGQRATISCRASKSVSTSGYSYVHWYQQKPGQPPKLLIYLASNLESGVPARFSGSGSGTDFTLNIHPVEEEDAATYYCQHSRELPLTFGAGTKLELK	–	953	–	–	–	–	76700 M⁻¹ s⁻¹	≤ 1.3 pM	≤ 1e-07 s⁻¹	no binding (tested: up to 1 µM)	–	–	–	–	–	–
D6 IgG (antibody, V domains shown) VH: EVQLQQSGPELVKPGASVKISCKASGYTFTDYNMHWVKQSHGKSLEWIGYIYPYNGDTGYNQKFKSKATLTVDNSSSTAYMELRSLTSEDSAVYYCVRSGDYWGQGTTLTVSS VL: not shown	≤ 2.84 pM	0.02	no binding	35200 M⁻¹ s⁻¹	≤ 1e-07 s⁻¹	–	–	–	–	–	–	–	–	–	–	–
B23 IgG (antibody, V domains shown, also called B23 IgG1) VH: EVQLQQSGAELVRPGASVKLSCTASGINIKDYYMHWMKQRPEQDLEWIGWIDPGNGDAEYAPKFQGKATMTADTSSNTAYLQLSSLTSEDTAVYYCNEIAYWGQGTLVTVSA VL: not shown	≤ 0.1 pM	0.92	–	95800 M⁻¹ s⁻¹	≤ 1e-07 s⁻¹	–	25400 M⁻¹ s⁻¹	≤ 3.27 pM	≤ 1e-07 s⁻¹	–	–	–	–	–	–	–
